Experimental data: IntAct's records for PubMed 17157260

B1: Protein YNG1 (Saccharomyces cerevisiae), Q08465 (parent)
chain: MEHLANENSDSDIRYSFLSTLDHLPCELIRSLRLMQTIDLFKNEEDEPGMERACRDLLLVATYINDLVDDQIHFLKQHKKELEIQKSVTKNFNSSLENIKSKLTLEEPGAYKEPKLLLKINLKKAKSRERKESITSPTIGINQGDVTEGNNNQEEVYCFCRNVSYGPMVACDNPACPFEWFHYGCVGLKQAPKGKWYCSKDCKEIANQRSKSKRQKRRK

Variants of: B1
Settings: with h3_yeast HHT1, P61830

Row | Variant | effect of a mutation on the interaction
1 | W180E | decreasing interaction
